Measurements reported in publication PMC3937308, “The Post-transcriptional Regulator rsmA/csrA Activates T3SS by Stabilizing the 5′ UTR of hrpG, the Master Regulator of hrp/hrc Genes, in Xanthomonas”.

Key:
[1] = target: T1, 6HisRsmA (RsmAxcc) (Xanthomonas citri subsp. citri strain …, UniProt Q8PLP9 1-70); test: EMSA; 10 mM HEPES pH 7.3, 20 mM KCl, 1 mM MgCl2, 1 mM DTT, 5% glycerol, 0.1 µg/µL yeast tRNA, 20 U RNasin, 25 °C 20 min; 5% native PAGE; conditions: protein: recombinant; tags: N-terminal 6xHis (pET-28a, NdeI site); chain copies: 2; label: 3' biotin
[2] = target: T1, 6HisRsmA (RsmAxcc); test: EMSA; 65 nM protein, 6.25 nM RNA; 10 mM HEPES pH 7.3, 20 mM KCl, 1 mM MgCl2, 1 mM DTT, 5% glycerol, 0.1 µg/µL yeast tRNA, 20 U RNasin, 25 °C 20 min; 5% native PAGE; conditions: protein: recombinant; tags: N-terminal 6xHis (pET-28a, NdeI site); chain copies: 2
[3] = target: T1, 6HisRsmA (RsmAxcc); test: EMSA; apparent Kd; 6.25 nM RNA; 10 mM HEPES pH 7.3, 20 mM KCl, 1 mM MgCl2, 1 mM DTT, 5% glycerol, 0.1 µg/µL yeast tRNA, 20 U RNasin, 25 °C 20 min; 5% native PAGE; conditions: protein: recombinant; tags: N-terminal 6xHis (pET-28a, NdeI site); chain copies: 2; label: 3' biotin

T1 sequence (Q8PLP9 whole entry): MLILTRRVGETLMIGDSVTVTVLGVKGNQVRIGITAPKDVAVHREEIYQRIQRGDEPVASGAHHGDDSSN

Row | Binder | binding result [1] | further results
1 | AUUCGUCCAGCUCCGCUGGACUCUC (ssRNA) [hrpG1] | no binding | –
2 | GGGAAUUCAACUCCAUCUAGGCACAAGGAUGUGCCAUAGUACUCAAGCU (structured_RNA) [R9-43] | – | binding result [2]: binds
3 | GUUAGGCGCCUGUUGUCUUUUGCUCCGCCCCCCAAAGAGAGAGAC (ssRNA) [hrpX] | no binding | –
4 | GCGCAGCGAUCGCGGAAGGAGAGGGCAAUG (ssRNA) [hrpC] | no binding | –
5 | ACGAUGCAGCGAUCUUUGAAGAUGGAUUUUGUCCUGGCAUUG (ssRNA) [hrpG2] | – | Kd [3]: 180 ± 200 nM
6 | GUGUACGGUCCGCAUGUCAUUAAAACGAGGUGCAGUGUG (ssRNA) [hrpB] | no binding | –
7 | GCCCAUCGCGCAGAUUGGCAACAUACGGCUACACCGCAUG (ssRNA) [hrpF] | no binding | –
